Earlier results, collected in article PMC3159028.

Molecular target: Ndel1 58-169 (Homo sapiens) (UniProt Q9GZM8)
Sequence (Q9GZM8 58-169): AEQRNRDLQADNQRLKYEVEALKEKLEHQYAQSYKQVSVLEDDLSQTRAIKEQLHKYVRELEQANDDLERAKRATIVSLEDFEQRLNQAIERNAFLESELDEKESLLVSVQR

Chain of Lis1 (P43034 whole entry): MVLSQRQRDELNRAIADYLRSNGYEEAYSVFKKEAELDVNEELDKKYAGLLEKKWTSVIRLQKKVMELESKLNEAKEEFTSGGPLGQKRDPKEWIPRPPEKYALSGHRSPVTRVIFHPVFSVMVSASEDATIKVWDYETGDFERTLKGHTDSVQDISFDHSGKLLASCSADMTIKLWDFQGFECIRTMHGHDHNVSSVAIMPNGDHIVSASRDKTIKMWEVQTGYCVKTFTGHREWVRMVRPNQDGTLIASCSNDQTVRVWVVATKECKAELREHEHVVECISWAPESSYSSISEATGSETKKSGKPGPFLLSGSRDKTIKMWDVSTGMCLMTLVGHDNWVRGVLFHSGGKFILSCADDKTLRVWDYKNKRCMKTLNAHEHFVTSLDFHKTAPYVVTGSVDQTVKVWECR

Kd: 300 nM
Substance: Lis1 (from UniProt P43034)
